Consider 8 molecules from patent publication US20240199724A1 (THELPER, published 2024).

The target of assay [1] is US28 of HCMV strain DB with C-terminal 6His tag, on CHO-US28-A1 cells (human cytomegalovirus (HCMV) strain DB) (UniProt P69332). Put plainly: flow cytometry, secondary antibody alone on CHO-US28-A1 cells.
Assay [2] concerns the target T1, US28 of HCMV strain TB40/E with C-terminal 6His tag, on CHO cells (human cytomegalovirus (HCMV) strain …, UniProt P69332 1-354).
T1 construct: also called TB40/E form of US28
T1 chain: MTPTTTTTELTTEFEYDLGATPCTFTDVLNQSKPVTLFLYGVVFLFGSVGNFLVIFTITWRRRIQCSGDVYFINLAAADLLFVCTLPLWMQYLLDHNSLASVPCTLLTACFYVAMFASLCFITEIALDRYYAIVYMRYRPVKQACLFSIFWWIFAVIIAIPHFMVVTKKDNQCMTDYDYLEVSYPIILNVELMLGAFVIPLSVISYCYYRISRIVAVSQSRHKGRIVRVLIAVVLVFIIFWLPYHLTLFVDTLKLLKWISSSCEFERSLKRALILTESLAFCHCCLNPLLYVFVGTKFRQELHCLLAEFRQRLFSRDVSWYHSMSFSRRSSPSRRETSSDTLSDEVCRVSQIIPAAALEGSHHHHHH
Put plainly: flow cytometry, CHO cells expressing DB or TB40/E US28 (FIG. 21D).

Assay [3] concerns the target T2, US28 of HCMV strain DB with C-terminal 6His tag, on CHO-US28-A1 cells (human cytomegalovirus (HCMV) strain DB, UniProt P69332 1-354).
T2 chain: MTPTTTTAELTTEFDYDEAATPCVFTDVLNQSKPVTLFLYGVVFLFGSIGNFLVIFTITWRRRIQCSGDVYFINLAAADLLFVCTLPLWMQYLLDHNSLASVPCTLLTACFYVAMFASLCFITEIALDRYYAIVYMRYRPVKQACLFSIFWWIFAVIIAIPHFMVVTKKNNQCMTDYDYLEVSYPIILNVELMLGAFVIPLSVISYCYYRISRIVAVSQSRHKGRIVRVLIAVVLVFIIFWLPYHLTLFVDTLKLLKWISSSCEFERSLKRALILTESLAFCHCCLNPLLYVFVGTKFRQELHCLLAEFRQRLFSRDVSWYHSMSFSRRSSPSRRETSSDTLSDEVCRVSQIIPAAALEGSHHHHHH
Put plainly: flow cytometry, CHO cells expressing US28 of strain DB. On the technique in general: A flow cytometer gives signals particle by particle.

The target of assay [4] is T1, US28 of HCMV strain TB40/E with …. Put plainly: flow cytometry, CHO cells expressing DB or TB40/E US28 (FIG. 21C).
Assay [5] deals with T3, mutated US28 (artificially created mutated strain) with C-terminal 6His tag, on CHO cells (human cytomegalovirus (HCMV), …, UniProt P69332 1-354).
T3 construct: also called CHO-mutated strain; mutated form of US28
T3 chain: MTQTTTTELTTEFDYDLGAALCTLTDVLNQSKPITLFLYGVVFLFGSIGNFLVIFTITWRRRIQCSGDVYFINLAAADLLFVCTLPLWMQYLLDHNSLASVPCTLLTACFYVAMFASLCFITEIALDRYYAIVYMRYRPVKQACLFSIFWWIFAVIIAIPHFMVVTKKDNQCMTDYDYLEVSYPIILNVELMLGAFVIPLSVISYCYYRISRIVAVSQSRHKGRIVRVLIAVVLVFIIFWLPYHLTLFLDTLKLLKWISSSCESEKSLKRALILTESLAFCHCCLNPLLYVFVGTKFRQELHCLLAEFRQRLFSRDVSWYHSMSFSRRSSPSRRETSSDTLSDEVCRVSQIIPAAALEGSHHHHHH
In words: flow cytometry, CHO cells expressing the mutated US28.

Assay [6] deals with T3, mutated US28 (artificially created …). Put plainly: flow cytometry, CHO cells expressing the mutated US28 (FIG. 21B).
For assay [7], the target named is T1, US28 of HCMV strain TB40/E with …. Put plainly: flow cytometry, CHO cells expressing US28 of strain TB40/E.
Assay [8] addresses T2, US28 of HCMV strain DB with C-terminal …. Put plainly: flow cytometry, CHO-US28 (DB) cells against control CHO cells, background subtracted.
Assay [9] shares this target. In words: flow cytometry, 1:50 (w/v).
For assay [10], the target named is T4, US28 of HCMV strain Ad169, on infected MRC-5 cells (human cytomegalovirus (HCMV) strain …, UniProt P69332 1-354).
T4 sequence: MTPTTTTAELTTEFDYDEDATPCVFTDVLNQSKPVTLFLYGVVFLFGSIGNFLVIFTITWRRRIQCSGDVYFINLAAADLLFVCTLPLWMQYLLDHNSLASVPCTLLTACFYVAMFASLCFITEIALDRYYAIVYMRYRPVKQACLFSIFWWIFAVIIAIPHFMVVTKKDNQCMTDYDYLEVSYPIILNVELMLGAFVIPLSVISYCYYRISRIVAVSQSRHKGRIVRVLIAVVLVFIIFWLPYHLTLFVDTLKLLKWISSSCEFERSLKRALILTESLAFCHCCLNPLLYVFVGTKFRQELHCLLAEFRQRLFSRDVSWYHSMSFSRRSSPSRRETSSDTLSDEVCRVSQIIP

The target of assay [11] is T2, US28 of HCMV strain DB with C-terminal …. In words: flow cytometry.
The target of assay [12] is Bio-Peptide-2 (human cytomegalovirus (HCMV), 4D variant). In words: ELISA (FIG. 5).

Where “and” joins values, the source holds several entries; their conditions need not be identical. Equal values may be shown once. Bounds are passed on as bounds.

Take “Goat anti-mouse IgG-Alexa 488 (antibody)”: the percent of cells bound in [1] is 1.63%.

B1: monovalent VUN100 (VHH)
VHH: EVQLVESGGGLVQPGGSLRLACAVSGPGLIFKFTGVAWYRRQVPGAKRGLVALITGDGATRYGDSVKGRFTVSRDIAAKRVYLEMNDLRSEDTAVYYCKTGEYWGQGTQVTVSS
notes: also called Mv VUN100; VUN100 Ab
Regarding B1, the “percentage retention of binding activity between the DB and TB40/E forms of US28” value (“percentage retention” for short) in assay [2] was ≤ 60%. For the same molecule, the “percent of cells bound” value in assay [3] was determined as 6.91%; in [5], 1.41%; in assay [7], 4.33%. In [4], the “% change in absolute level of binding between the DB and TB40/E forms of US28” value (“% change in absolute level” for short) is > 35%. Moreover, the binding result in [5] is given as “no binding (tested: 50 µg/ml)”. In [6], the “specificity (fold binding against control CHO cells)” value is < 1 fold.

B2: US28-14-4E4-1E8 antibody (antibody, mouse IgG1, kappa, V domains shown)
VH: EVKLVESGGDLVKPGGSLKLSCAASGFTFSSYAMSWVRQTPEKRLEWVASISSGGRTYYPDSVKGRFTISRDNARNILYLQMSSLRSEDTAIYYCARGGTRHSYGNGFDYWGQGTTLTVSS
VL: QIVLSQSPTIMSASPGEKVTMTCSASSSVSYMHWYQQKSGTSPKRWIYDSSKLASGVPARFSGSGSGTSYSLTISSMEAEDAATYYCQQWTSNPPITFGAGTKLELKR
Take B2: the “Binding specificity comparative to the specificity displayed by VUN100” value (“Binding specificity comparative” for short) in assay [8] is 4.6 ratio.

B3: US28-13-1H3-1A10 antibody (antibody, mouse IgG1, kappa, V domains shown)
VH: EVKLVESGGVLVKPGGSLKFSCAASGFTLSSHALSWVRQTPEKRLEWVASISSRGRTYYPDSVKGRFTVSRDNARNILYLQVSSLRSEDTAMYYCTRGGTHYSYGNGFDFWGQGTTLTVSS
VL: QIVLTQSPAIMSASPGEKVTMTCSVSSSVSYMHWYQQKSGTSPKRWIYDTSKLASGVPARFSGSGSGTSYSLTISTMEAEDAATYYCQQWSNNPPITFGAGTKLELKR
notes: also called 14-1H3-1A10; 14-IH3-IA10
For B3, the “Binding specificity comparative” value in assay [8] came to 2.29 ratio.

B4: US28-13-1C10-1C10 antibody (antibody, mouse IgG1, kappa, V domains shown)
VH: EVKLVESGGVLVKPGGSLKFSCAASGFTFSSHALSWVRQTPEKRLEWVASISSRGRTYYPDSVKGRFTVSRDNARNILYLQVSSLRSEDTAMYYCTRGGTHYSYGNGFDFWGQGTTLTVSS
VL: QIVLTQSPAIMSASPGEKVTMTCSVSSSVSYMHWYQQKSGTSPKRWIYDTSKLASGVPARFSGSGSGTSYSLTISTMEAEDAATYYCQQWSNNPPITFGAGTKLELKR
As to B4, in assay [8], the “Binding specificity comparative” value came out at 1.74 ratio.

B5: US28-13-5G6-1D3 antibody (antibody, V domains shown)
VH: EVKLVESGGGLVQPGGSLRLACATSGFTFTDYYMSWVRQPPGKALEWLGFIRSKANGYTTEYSASVKGRFTISRDNSQSILYLQMNTLRSEDSATYYCARDERRTAWLAYWGQGTLVTVSA
VL: DVLMTQTPLSLPVSLGDQASISCRSSQSIVHSNGNTYLDWYLQKPGQSPKLLIYKVSNRFSGVPDRFSGSGSGTDFTLKISRVEAEDLGVYYCFQGSHVPTWTFGGGTKLEIKR
notes: also called US28-13-5G6-1D3 Ab; US28-13-5G6-1D3 rAb
Regarding B5, the “percentage retention” value in assay [2] was ~100%. The “fold binding against US28 negative CHO cells” value in [9] was 15 fold. For the same molecule, the “Binding specificity comparative” value in assay [8] turned out to be 1.65 ratio. Moreover, the “fold binding against uninfected cells” value in assay [10] was ~16 fold. Moreover, the “percent of cells bound” value came out at 16.6% in assay [3], 12.9% in assay [5] and 18.2% in assay [7]. In [4], the “% change in absolute level” value is < 10%. Further, in assay [6], the “fold binding against control CHO cells” value is ~15 fold. Further, the “fold binding against normal CHO cells” value in assay [11] was > 21 fold.

B6: bivalent VUN100 (VHH)
chain: EVQLVESGGGLVQPGGSLRLACAVSGPGLIFKFTGVAWYRRQVPGAKRGLVALITGDGATRYGDSVKGRFTVSRDIAAKRVYLEMNDLRSEDTAVYYCKTGEYWGQGTQVTVSSGGGGSGGGGSGGGGSGGGGSGGGGSGGGGSEVQLVESGGGLVQPGGSLRLACAVSGPGLIFKFTGVAWYRRQVPGAKRGLVALITGDGATRYGDSVKGRFTVSRDIAAKRVYLEMNDLRSEDTAVYYCKTGEYWGQGTQVTVSS
notes: also called VUN100b; BvVUN100
Regarding B6, in assay [2], the “percentage retention” value was ≤ 60%. In addition, the “percent of cells bound” value was 9.24% in assay [3], 2.58% in [5] and 5.2% in [7]. Besides, the “% change in absolute level” value in assay [4] was > 40%. The “fold binding against control CHO cells” value in assay [6] came to 2.43 fold.

B7: US28-13-5G6-1D3 antibody (antibody)
heavy: EVKLVESGGGLVQPGGSLRLACATSGFTFTDYYMSWVRQPPGKALEWLGFIRSKANGYTTEYSASVKGRFTISRDNSQSILYLQMNTLRSEDSATYYCARDERRTAWLAYWGQGTLVTVSAAKTTPPSVYPLAPGSAAQTNSMVTLGCLVKGYFPEPVTVTWNSGSLSSGVHTFPAVLQSDLYTLSSSVTVPSSTWPSETVTCNVAHPASSTKVDKKIVPRDCGCKPCICTVPEVSSVFIFPPKPKDVLTITLTPKVTCVVVDISKDDPEVQFSWFVDDVEVHTAQTQPREEQFNSTFRSVSELPIMHQDWLNGKEFKCRVNSAAFPAPIEKTISKTKGRPKAPQVYTIPPPKEQMAKDKVSLTCMITDFFPEDITVEWQWNGQPAENYKNTQPIMDTDGSYFIYSKLNVQKSNWEAGNTFTCSVLHEGLHNHHTEKSLSHSPGK
light: DVLMTQTPLSLPVSLGDQASISCRSSQSIVHSNGNTYLDWYLQKPGQSPKLLIYKVSNRFSGVPDRFSGSGSGTDFTLKISRVEAEDLGVYYCFQGSHVPTWTFGGGTKLEIKRADAAPTVSIFPPSSEQLTSGGASVVCFLNNFYPKDINVKWKIDGSERQNGVLNSWTDQDSKDSTYSMSSTLTLTKDEYERHNSYTCEATHKTSTSPIVKSFNRNEC
On to B7, for which the fold binding against BSA control in assay [12] was 27 fold and 28 fold.
